Tests used:
[1] = pH solubility screen in Citric Acid / Dibasic Sodium Phosphate buffers; format: physicochemical
Description: pH Solubility. […] Protein was either lyophilized and then resuspended in buffer cocktail mixtures, or concentrated and then spiked into buffer cocktail mixtures at a final protein concentration of 5 to 30 mg/ml. As a control, protein was also dissolved in a solution of 8 M urea. Protein solutions were shaken for 10 min at room temperature. Turbidity of proteins was determined by measuring the absorbance of protein solutions at 650 nm. The protein solution was then centrifuged for 10 min at 1100×g to pellet undissolved or precipitated protein. The soluble protein fraction (supernatant) was sampled and protein concentration was measured by one or more of the following methods: Coomassie Plus Protein Assay (Pierce), Chip electrophoresis, gel electrophoresis, and/or absorbance at 280 nm. The pH range over which select proteins remained greater than 80% soluble as determined by Bradford and the A650 value are listed in Table E31C.

[2] = Intact half-life during simulated gastric fluid (SGF) digestion; conditions: SGF pH 1.5, pepsin:polypeptide 1:20 w/w, 37° C.; produced in E. coli unless otherwise noted
Description: Nutritive polypeptide half-life during simulated digestion. One metric for quantifying the breakdown of polypeptides from an intact form to smaller peptides is the intact half-life. In this experiment the nutritive polypeptide was exposed to a series of proteases that are active in the stomach (pepsin) and intestine (trypsin and chymotrypsin), and the presence of intact protein was measured over time. Specifically, the nutritive polypeptide was first treated at a concentration of 2 g/L with simulated gastric fluid (SGF) (0.03 M NaCl, titrated with HCl to pH 1.5 with a final pepsin: polypeptide ratio of 1:20 w/w) at 37° C. Time points were sampled from the reaction and quenched by addition of 0.2 M Na2CO3. […] Time points were sampled from the reaction and quenched by addition of Trypsin/Chymotrypsin Inhibitor (Sigma) solution until 240 min.
Time point samples were analyzed for intact protein by chip electrophoresis, polyacrylamide gel electrophoresis, or western blot. For chip electrophoresis (Labchip GX II), samples were analyzed using a HT Low MW Protein Express LabChip® Kit (following the manufacturer's protocol). A protein ladder was loaded every 12 samples for molecular weight determination (kDa) and quantification. For polyacrylamide gel electrophoresis, samples (1 μg) were separated on a NuPAGE® Novex® Bis-Tris Precast gel (Life Technologies) according to the manufacturer's protocol. The gel was stained using SimplyBlue™ SafeStain (Invitrogen) and imaged using a Chemidoc XRS+ (BioRad) or transferred onto nitrocellulose membranes using the iBlot® Dry Blotting System (Life Technologies) and iBlot® Western Detection Kit (Life Technologies) according to the manufacturer's protocol. Proteins were detected by blotting with Anti-His [C-term]-HRP antibody diluted 3:5000 in Blok™-PO Blocking Buffer using the SNAP i.d.® Protein Detection System (Millipore) according to the manufacturer's protocol. Blots were treated with Luminata Classico Western HRP Substrate (Millipore) according to the manufacturer's protocol and imaged using chemiluminescent detection on the Molecular Imager® Gel Doc™ XR+ System (Bio-Rad). Quantification of intact protein was determined by densitometry using ImageLab (BioRad). For all analysis methods the relative concentration of the polypeptide at each time point (if detected) was plotted overtime and fit to an exponential curve to calculate the intact half-life.
Specifically, the t=0 (enzyme-free control) and t=2 min samples from the SGF digest were analyzed for intact protein as described by chip electrophoresis, SDS-PAGE, western blot, and/or LC-MS/MS. Relative quantities of polypeptides at each time point were determined and the percentage of intact protein remaining at t=2 was determined.

[3] = Thermostability, ProteoStat Thermal Shift Stability Kit, temperature of aggregation; format: physicochemical; conditions: pH 7.1; heated from 25° C. to 95° C.
Description: Thermostability. The thermostability of proteins in a buffer cocktail of Citric Acid and Dibasic Sodium Phosphate over a pH range of 2.8 to 7.1 (preparation described above in Table E31B) was determined using the ProteoStat® Thermal Shift Stability Kit (Enzo Life Sciences) according to the manufacturer's standard protocol. Briefly, protein solutions (˜10 mg/ml) containing 1× ProteoStat TS Detection Reagent were heated from 25° C. to 95° C. at a rate of 0.5° C. per 30 sec using a real-time PCR (rtPCR) thermocycler (BioRad) equipped with a plate reader (SynergyMx, Biotek) while monitoring the fluorescence with a Texas Red filter.

insulin = assay: Plasma insulin after acute oral dosing in rats, Rat Insulin ELISA; format: in vivo; conditions: Rat Insulin ELISA kit; oral gavage
Description: Animals were treated and acutely dosed with various test articles as part of pharmacokinetic rodent experiments according to methods described herein. Unless otherwise stated all dosing was at 2.85 g/kg body weight. All treatment groups except for SEQID-00240 which had n=5 rats, and SEQID-00587 which had n=3, contained n=4 rats.
An Ultra-Sensitive Rat Insulin ELISA Kit was obtained from Crystal Chem, Inc. (Catalog number 90060, Downers Grove, IL). Plates were washed using a BioTek ELx50 microplate strip washer (BioTek, Winooski, VT). Absorbance was read on a Synergy Mx monochromator-based microplate reader (BioTek, Winooski, VT). Data was analyzed using Microsoft Excel version 14.0.7128.5000 (Microsoft Corporation, Redmond, WA) and GraphPad Prism version 6.03 for Windows (GraphPad Software, La Jolla, CA).
The ELISA kit was pre-warmed to room temperature for 30 minutes prior to beginning the assay set up. The standard curve dilutions were prepared in accordance with the manufacturer's instructions for running the assay in Wide Range format. […]
Anti-Insulin Enzyme Conjugate Working Solution was prepared by combining 2 volumes Anti-Insulin Enzyme Conjugate Stock with 1 volume Enzyme Conjugate Diluent, and mixing by pipetting up and down and gently vortexing. […] The absorbance was read on the Synergy Mx plate reader at 450 nm and 630 nm. […]

With “SEQID-00240: nutritive polypeptide naturally produced in Cow, recombinantly expressed in E. coli (DLEGSLEQEKKLRMDLERAKRKLEGDLKLAQESTMDIENDKQQLDEKLKK; listed as Bos taurus)” the “pH Range where Protein is >80% detected as Soluble and A650 <1 OD: Low” value ([1]; lower pH of range) was 6.6, the “pH Range where Protein is >80% detected as Soluble and A650 <1 OD: High” value ([1]; upper pH of range) was 9.1 and the “SGF Half-life (t½)” value [2] was 42 s. For the same substance, the “Tagg (pH 7.1)” value [3] was over 95 and the “plasma insulin concentration vs time 0” value (insulin) was “statistically significant increase in plasma insulin at 15 and 30 minutes post gavage compared to time 0”.

From patent US20260069656A1, “Nutritive Polypeptides and Formulations Thereof, and Methods of Production and Use Thereof” (Axcella Health Inc., priority 2013, published 2026)
